Results published in patent publication US20260098102A1 (NATIONAL UNIVERSITY CORPORATION KOBE UNIVERSITY, published 2026).
Positions count from the first letter of the chain named. Each block holds one binder with its values, some of them ahead of it.

Experiments:
[1] = molecular target: T1, mouse SIRPA variant hmSIRPA_Δ1 (mouse (with human residues), UniProt P97797 35-513); assay: cell-based ELISA on 293α cells expressing FLAG-tagged hmSIRPA_Δ1; Abs 490 normalized to FLAG tag [ii]
T1 construct: FLAG-tagged (pFLAG V5-DEST), on 293α cells
T1 chain: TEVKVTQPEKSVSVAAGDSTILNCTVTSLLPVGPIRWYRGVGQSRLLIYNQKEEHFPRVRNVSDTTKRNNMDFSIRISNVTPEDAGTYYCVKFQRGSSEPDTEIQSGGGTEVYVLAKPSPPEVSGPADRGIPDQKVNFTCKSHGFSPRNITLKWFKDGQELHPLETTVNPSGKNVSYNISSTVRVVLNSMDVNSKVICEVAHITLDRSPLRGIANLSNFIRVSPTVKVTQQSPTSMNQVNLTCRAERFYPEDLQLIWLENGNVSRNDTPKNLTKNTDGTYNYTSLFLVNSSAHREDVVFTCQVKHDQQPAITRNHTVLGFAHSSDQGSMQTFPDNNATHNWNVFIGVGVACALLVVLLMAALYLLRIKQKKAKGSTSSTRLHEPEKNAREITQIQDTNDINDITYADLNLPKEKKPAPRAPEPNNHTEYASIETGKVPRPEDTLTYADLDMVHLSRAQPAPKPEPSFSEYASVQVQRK
Description: After the culture supernatant of 293α cells into which the pFLAG V5-DEST-hmSIRPA_Δ0, Δ1, and Δ2 expression vector prepared in 2)-1-2-2 was introduced and the pFLAG V5-DEST-introduced 293α cells was removed, 50 μL per well of four different D13 humanized anti-human SIRPA antibodies and a chimeric anti-human SIRPA antibody diluted with 5% FBS-containing PBS to a final concentration of 10,000 ng/mL were added to these cells, and the mixture was allowed to stand at 4° C. for one hour. Further, 50 μL per well of an anti-FLAG M2 antibody (SIGMA) diluted with 5% FBS-containing PBS to a final concentration of 10,000 ng/mL was added to a well for detecting expression of each SIRPA construct, and the mixture was allowed to stand at 4° C. for one hour. Thereafter, binding to each construct was evaluated in the same manner as in the evaluation of the binding activity of the human SIRPA. Binding of anti-human SIRPA antibodies to each construct was standardized by expression of the FLAG tag.

mouse SIRPA BALB/c = molecular target: T2, mouse SIRPA BALB/c (mouse (BALB/c), UniProt P97797 35-513); assay: cell-based ELISA on 293α cells expressing FLAG-tagged mouse SIRPA (BALB/c); Abs 490 normalized to FLAG tag [ii]
T2 construct: FLAG-tagged (pFLAG V5-DEST), on 293α cells
T2 chain: T1 chain with N50S, Q51F, K52T, E53G
Description: The 293a cells, described in Example 1)-6, were prepared at 5× 10⁵ cells/mL in a 10% FBS-containing DMEM medium. pFLAG V5-DEST-SIRPA_V1-V10, pFLAG V5-DEST-monkey SIRPA, pFLAG V5-DEST-mouse SIRPA, or pFLAG V5-DEST was introduced into the cells using Lipofectamine LTX (Invitrogen), and 100 μL each was aliquoted to a 96-well plate (Corning Incorporated) and cultured overnight in a 10% FBS-containing DMEM medium at 37° C. under a 5% CO₂ condition. The obtained introduced cells were used for cell-based ELISA in a state that they adhered. After the culture supernatant was removed, 50 μL per well of hD13_HIL3, hD13_HIL4h, hD13_H2L2, hD13_H2L3, or cD13 prepared in Examples 6 and 7 or a control antibody was added to each of various SIRPA genes-introduced cells at a final concentration of 0 to 10,000 ng/ml, and the mixture was allowed to stand at 4° C. for one hour. Thereafter, binding to human SIRPA was evaluated in the same manner as in Example 5-1.

cSIRPA_ECD = molecular target: T3, cSIRPA_ECD (cynomolgus monkey); assay: SPR Biacore T200, antibody captured on anti-human IgG (Fc), monkey SIRPA_ECD as analyte, 1:1 model
T3 construct: Secreted recombinant protein
T3 chain: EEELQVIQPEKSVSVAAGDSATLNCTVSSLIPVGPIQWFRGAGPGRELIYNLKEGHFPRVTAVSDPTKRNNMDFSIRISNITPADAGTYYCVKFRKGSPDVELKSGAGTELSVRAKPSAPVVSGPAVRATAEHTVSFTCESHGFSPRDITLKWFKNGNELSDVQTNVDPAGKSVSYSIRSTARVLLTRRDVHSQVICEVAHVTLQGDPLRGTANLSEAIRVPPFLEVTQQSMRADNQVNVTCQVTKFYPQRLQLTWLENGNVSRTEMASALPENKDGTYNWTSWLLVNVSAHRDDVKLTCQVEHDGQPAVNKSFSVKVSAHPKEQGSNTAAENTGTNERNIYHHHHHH
Description: The dissociation constants of hD13_HIL3, hD13_HIL4, hD13_H2L2, and hD13_H2L3 prepared in Example 7 against human SIRPA_V1_IgV and monkey SIRPA_ECD prepared in Example 1 were measured by a capture method of capturing a humanized antibody as a ligand to an Anti-Human IgG (Fc) antibody immobilized using Human Antibody Capture Kit (GE Healthcare Bioscience Corp.) and measuring an antigen as an analyte, using Biacore T200 (GE Healthcare Bioscience Corp.). HBS-EP+ (GE Healthcare Bioscience Corp.) was used as a running buffer, and CM5 (GE Healthcare Bioscience Corp.) was used as a sensor chip. Onto the chip, 1 μg/mL humanized antibody was added at 10 μL/min for 60 seconds, and then a serially diluted solution (0.5 to 8 μg/mL) of human SIRPA protein or a serially diluted solution (1 to 16 μg/mL) of monkey SIRPA protein was added as an antigen at a flow rate of 30 μL/min for 120 seconds, and subsequently the dissociation phase for 600 seconds was monitored. As a regenerant, 3 M magnesium chloride (GE Healthcare Bioscience Corp.) was added at a flow rate of 20 μL/min for 30 seconds. For data analysis, a binding rate constant (ka), a dissociation rate constant (kd), and a dissociation constant (KD; KD=kd/ka) were calculated using a 1:1 binding model.

B1: human chimeric anti-SIRPA antibody cD13 (antibody, human IgG4 S228P, kappa, F234A L235A, V domains shown)
VH: EVQLVESGGGLVQPGRSLKLSCLASGFTFSDYGMIWVRQAPGKGLEWVASISSSSSYIYYADTVKGRFTISRENAKNTLFLHMTSLRSEDTALYYCARRYYGFNYPFDYWGQGVMVTVSS
VL: DTVLTQSPALAVSLGQRVTISCGASKSVRTYMHWYQQKSGQQPKLLIYSASNLEAGVPSRFSGSGSGTDFTLTIDPVEADDIANYYCQQSNEPPYTFGAGTKLELKR
notes: Human IgG4proFALA heavy chain, human kappa light chain; also called cD13 (IgG4pf); human chimeric antibody D13
- binding result [1]: no binding (tested: 10000 ng/mL)
- binding result (mouse SIRPA BALB/c): no binding (tested: 10000 ng/mL)

B2: humanized anti-SIRPA antibody hD13_H1L3 (antibody, human IgG4 S228P, kappa, F234A L235A, V domains shown)
VH: QVQLVESGGGVVQPGRSLRLSCAASGFTFSDYGMIWVRQAPGKGLEWVASISSSSSYIYYADSVKGRFTISRDNSKNRLYLQMNSLRAEDTAVYYCARRYYGFNYPFDYWGQGTMVTVSS
VL: DTQLTQSPSSLSASVGQRVTITCGASKSVRTYMHWYQQKPGKQPKLLIYSASNLEAGVPSRFSGSGSGTDFTLTISSLQPEDFATYYCQQSNEPPYTFGQGTKLEIKR
notes: hH1 heavy chain (IgG4proFALA) and hL3 kappa light chain; also called hD13_HIL3; HIL3 antibody
- binding result [1]: no binding (tested: 10000 ng/mL)
- Kd (cSIRPA_ECD): 38.6 nM
- binding result (mouse SIRPA BALB/c): no binding (tested: 10000 ng/mL)

B3: humanized anti-SIRPA antibody hD13_H2L3 (antibody, human IgG4 S228P, kappa, F234A L235A, V domains shown)
VH: B2 VH with Q1E, R78T
VL: B2 VL
notes: hH2 heavy chain (IgG4proFALA) and hL3 kappa light chain; also called H2L3 antibody
- binding result [1]: no binding (tested: 10000 ng/mL)
- Kd (cSIRPA_ECD): 54.2 nM
- binding result (mouse SIRPA BALB/c): no binding (tested: 10000 ng/mL)

More lines, now with the values ahead:

- binding result [1]: no binding (tested: 10000 ng/mL)
- Kd (cSIRPA_ECD): 83.9 nM
- binding result (mouse SIRPA BALB/c): no binding (tested: 10000 ng/mL)
B4: humanized anti-SIRPA antibody hD13_H1L4 (antibody, human IgG4 S228P, kappa, F234A L235A, V domains shown)
VH: B2 VH
VL: DTVLTQSPDSLAVSLGQRATINCGASKSVRTYMHWYQQKPGQQPKLLIYSASNLEAGVPSRFSGSGSGTDFTLTISSLQAEDVAVYYCQQSNEPPYTFGQGTKVEIKR
notes: hH1 heavy chain (IgG4proFALA) and hL4 kappa light chain; also called hD13_HIL4; hD13_HIL4h

- binding result [1]: no binding (tested: 10000 ng/mL)
- Kd (cSIRPA_ECD): 162 nM
- binding result (mouse SIRPA BALB/c): no binding (tested: 10000 ng/mL)
B5: humanized anti-SIRPA antibody hD13_H2L2 (antibody, human IgG4 S228P, kappa, F234A L235A, V domains shown)
VH: B2 VH with Q1E, R78T
VL: B2 VL with D1A, T2I, Q43A
notes: hH2 heavy chain (IgG4proFALA) and hL2 kappa light chain; also called H2L2 antibody
